We go through 23 sequences from the DeepSol protein solubility set.

The nature of this series: soluble on expression in E. coli; label from the status in PepcDB or PDB records.
“MKLYNLKDHNEQVSFAQAVTQGLGKNQGLFFPHDLPEFSLTEIDEMLKLDFVTRSAKILSAFIGDEIPQEILEERVRAAFAFPAPVANVESDVGCLELFHGPTLAFKDFGGRFMAQMLTHIAGDKPVTILTATSGDTGAAVAHAFYGLPNVKVVILYPRGKISPLQEKLFCTLGGNIETVAIDGDFDACQALVKQAFDDEELKVALGLNSANSINISRLLAQICYYFEAVAQLPQETRNQLVVSVPSGNFGDLTAGLLAKSLGLPVKRFIAATNVNDTVPRFLHDGQWSPKATQATLSNAMDVSQPNNWPRVEELFRRKIWQLKELGYAAVDDETTQQTMRELKELGYTSEPHAAVAYRALRDQLNPGEYGLFLGTAHPAKFKESVEAILGETLDLPKELAERADLPLLSHNLPADFAALRKLMMNHQ”: the “soluble on expression in E. coli” value is “soluble”.
To “MKLYYKVGAASLAPHIILSEAGLPYELEAVDLKAKKTADGGDYFAVNPRGAVPALEVKPGTVITQNAAILQYIGDHSDVAAFKPAYGSIERARLQEALGFCSDLHAAFSGLFAPNLSEEARAGVIANINRRLGQLEAMLSDKNAYWLGDDFTQPDAYASVIIGWGVGQKLDLSAYPKALKLRERVLARPNVQKAFKEEGLN” belongs “soluble”.
On to “MKMLEQLEKKLGYTFKDKSLLEKALTHVSYSKKEHYETLEFLGDALVNFFIVDLLVQYSPNKREGFLSPLKAYLISEEFFNLLAQKLELHKFIRIKRGKINETIIGDVFEALWAAVYIDSGRDANFTRELFYKLFKEDILSAIKEGRVKKDYKTILQEITQKRWKERPEYRLISVEGPHHKKKFIVEAKIKEYRTLGEGKSKKEAEQRAAEELIKLLEESE”, for which the “soluble on expression in E. coli” value is reported as “soluble”.
Next, “MKMLVGKIPSELLAKILEKLKPGDKVIVGPKVGIDATAIDFGDYVLVASTDPITGTEEKIGFYAVNINANDVATFGARPKWFLVTILLPEGSEFNDVITIMDEVREVAEGMGISIVGGHTEVTPGLKKPIVVGTMLGEVEKENLVVPNPRPGDAIILTKGAGIEGTSIIAHEREEELKGVFGSNFVERAKAFINEISIVREALLSREFATAMHDPTEGGIANGLHEMADINGLGFRIFANKVIIREETRKICHFYDLDPLALISSGALLISTPRDHAKFLIERLLSHGIQASIIGEFLAEKKRVIIENGAERPLKRPESDELWKVV”: “soluble”; “MKMMDANEIISFIQNSTKSTPVKVYVKGELEGINFGESAKAFINGNTGVVFGEWSEIQTAIEENQSKIEDYVVENDRRNSAIPMLDL”: “not soluble”.
Next, “MKMNPRCTYCLLSRVHFQSKLSTDDEDLISRTIHECLGVMNKHYSPEAVSSRVATKVHRKCYEVLRDSDPYEVTKKLINQAALKVLPAAKEKIYENSPDDGELFKRAVLASVIANYFDFGIMGFDASEDKFEAAFLKYYEQGLDVDDTPEMLGLLQDVVYIADNCGEILFDAIVFDVIKKLGGNITLVVRGGPILTDVTLEEIKEFEIDKKVDRVMTTGSNAVGVLVEEAPAELLDAMKNATLIISKGMANYETLSEHNFGPIAYMLLTKCECVAEDLGLETGLSVAKLMNFPLEHHHHHH”: “soluble”; “MKMQKELSVYLKQILQAAQYIRLYTDKMDYGQFSADTKTVQAVVFNLFLIGENATHILKSYPEFAEETKYLNWIGMRGYCAIGLPMATLK”: “not soluble”; “MKMTSRKLSDILKKRLQNDSWSFHFDREKDSLRIEDKNTGKGITLELPGIIAKWEQKKDDAIDEVVYYTEEALNAMKGQSQEMEGRESLIYPVIRSTSFPEKSSAGVPLVFDGHTAETRIYYALDLGNTYRLIDEKMLEKEGWTKERIRETASFNLRSLQTVVKEDEVAGNHFYFFRANDGYDASRVLNESILAEYEKNAEGTLAVSIPHQDVLIIADIRNNAGYDILGQMSMSFFANGTVPITALSFLYEDGKLEPIFILAKNRPKK”: “not soluble”.
With “MKMYEVKEFSSGKRKLEDYKSIIGEEEVSKIQEKAEKLKGRSFVHVNSTSFGGGVAEILHSLVPLLRSIGIEARWFVIEGPTEFFNVTKTFHNALQGNESLKLTEEMKELYLNVNRENSKFIDLSSFDYVLVHDPQPAALIEFYEKKSPWLWRCHIDLSSPNREFWEFLRRFVEKYDRYIFHLPEYVQPELDRNKAVIMPPSIDPLSEKNVELKQTEILRILERFDVDPEKPIITQVSRFDPWKGIFDVIEIYRKVKEKIPGVQLLLVGVMAHDDPEGWIYFEKTLRKIGEDYDVKVLTNLIGVHAREVNAFQRASDVILQMSIREGFGLTVTEAMWKGKPVIGRAVGGIKFQIVDGETGFLVRDANEAVEKVLYLLKHPEVSKEMGAKAKERVRKNFIITKHMERYLDILNSLGGLEHHHHHH”, the “soluble on expression in E. coli” value is reported as “soluble”.
Regarding “MKNELICYKQMPVWTKDNLPQMFQEKHNTKVGTWGKLTVLKGKLKFYELTENGDVIAEHIFTPESHIPFVEPQAWHRVEALSDDLECTLGFYCKKEDYFSKKYNTTAIHGDVVDAAKIISPCKVLDLGCGQGRNSLYLSLLGYDVTSWDHNENSIAFLNETKEKENLNISTALYDINAANIQENYDFIVSTVVFMFLNRERVPSIIKNMKEHTNVGGYNLIVAAMSTDDVPCPLPFSFTFAENELKEYYKDWEFLEYNENMGELHKTDENGNRIKMKFATMLARKK”, the “soluble on expression in E. coli” value was “soluble”.
To “MKNIAAQMVNFDREQMRRIANIDNQDMTISVWVFPDTDISDVSRELIAAIKQGYLTVKAAGVWAGGIETPSVETPSEGSKFFGFDMDNEFISGFDVGAWGVLL” belongs “soluble”; to “MKNIVIVGGGVAGTITANYLAMKLREEIREKNVSITLISDREKQLYEPGLLYLIFNRMEESEILKDVKYLLDPLIELKIARATKIDAEKSRVELENGEVVNYDYLVIATGSRVAPEEMPGLVDGGHWFYNLDGAKRLREELARFKKGKVVVSVMGIPHKCPVAPIEVTFMLHEFFKIHGVRKDVELLYTYPINRVFTMEEVSDLVQKMFDERGINYKTFFNPVSIDPEKKVIETLEGEEEPYDLLIAIPPHKGSQVIIDSGLGDRDGWVPTDRYTLKAEGLENVYVVGDATNLPVSKAGSVAHFEAEVVAENIAAEIKGLPPTARYFGKAMCFIETGFSEATYIWFDYETPPKFVKPNKFIHWMKLAYNRMYWLTARGMLLEHHHHHH”, “soluble”; to “MKNKSLLLAVAISATLLAGCKNGVNGNLIASSGMSTYKAATLSDADVKALSNNACKQMDSENQLAGSKSKYTKRLSKIAKALGNNIDGTPVSYKVYMTSDINAWAMANGCVRVYSGLMDLMTDNEIEGVLGHELGHVSLGHSRKAMQTAYATLAARDAISATSGVAAQLSQSQLGDLAEGVINSAFSRSQESDADDFSYDLLKKRGINTQGLVTAFDKFATMDAGHAKSLMDSHPASADRAQHMRDRIAEDKKLEHHHHHH”, “not soluble”.
As for “MKNNRYSPDWPQLALQKKQSVNWVCERCGVQCLKPGEGKGLSTGDRYRLRMAVHHCDYDPSNNYPSNLMALCSPCHLYYHRRQRGNVTPGQLTLKFCLEHHHHHH”, the “soluble on expression in E. coli” value is “not soluble”.
Next, “MKNVGDLMQRLQKMMPAHITPAFKTGEELLAWQKEQGEIRAAALARENRAMKMQRTFNRSGIRPLHQNCSFDNYRVECDGQMNALSKARQYVDEFDGNIASFVFSGKPGTGKNHLAAAICNELLLRGKSVLIITVADIMSAMKDTFSNRETSEEQLLNDLSNVDLLVIDEIGVQTESRYEKVIINQIVDRRSSSKRPTGMLTNSNMEEMTKMLGERVMDRMRLGNSLWVNFTWDSYRSRVTGKEYLEHHHHHH”: “soluble”; “MKPIQVEREIFRYEQGAIKHIEDSIVTEFPVTIKMNGQEFVTMVSTPEYIEDMVIGFLASEGIIRKYEDIDSVWVQEKEGFVHVTTTKVNPYYEQMQNKRYITSCCGMSRQGFVFANDALSAKKMKGVHVQVAADDCFRLMKEMQQSADTFHRTGGVHNAALCDVNGIILSRMDIGRHNALDKIYGYCLRNDISIKDKIIVFSGRISSEILLKVAKIGCEIILSKSAPTELALQLAEDLGITTIGFIRNHSLNVYTHPERVLNIKLEHHHHHH”: “soluble”; “MKPKAMIRTMAIMKTADILKAMDITEELAKRMGFLPRDCLFLRLATEEACTNAYEYCQKTRKLPFRIFWKMEARQFMIIVKQRGGCFSVAQTDVVNTGPRGRGLQLITHIVDDVYVKQAGNNVLFCMCKCKK”: “not soluble”.
Next, “MKPKPLKCITSHHYIIKFYDKSNLRTSLYLLIFKEHKDYREQMKVYIIDYHKDDPKRCTGKKLVKLKIAEFTRVGKGVVLDPFAQITLSNKDKDIVRRIGITIVDTSWNNTSQSEFKNIRGEHRRIPILFAGNPIHYGIAYKLSSIEALIATLYIVDEVEEAIKLSNVVKWGHTFIELNKELLEAYKNKTEEDIKKIEREIIEKILEKLEHHHHHH”: “not soluble”.
To “MKPLAQLLLFLLQFQKGNLVSQSSSTPLMVNGVLGESVTLPLEFPAGERIQFITWLCNGTSFAFLEPYEGKSPKIYVTHPKWQKRLSFTQSYSPQLSNLEMENIGFYSAQIATETSAKLSSYTLRIFKQLPRPQVRVDSIISENGICNAILRCSVEEGGETITYEWTSMGPGAAVSHVGSVLYGSWSLHDLDWIYTCTALNPVSYSNSTLTLAAQLCASSKAAEGTYCPVKWIFLGNRLLLLVFLGVLRTWHIQAQVLSKPLRPNSG” belongs “not soluble”; to “MKPRESMVRLKMFQVRGKRREIAQLEMMIAEFERMVLELEAQIVHEECKSGNSDVHHFAYSALARAARQRRDNLINSIRDLQLQKTNAEIALHEVTTELQRAQLLEARENGGVAGEKDIFMQSRSMTG”, “not soluble”.
Turning to “MKPRPQSDAVDNEGPTPLSKGRRHLAMRLDDAWLGFQTRLAIRRGRVETVIPYTGYGSTSWVRVLARIVRSDPRDAAGHTNPLQESMRGWRNFTSAPVAHASVQVTIDGTVHDVVADRGGVVDARIPVALDAGWHTITLRSGESETVEAPVEIVADDAVFGVVSDIDDTVMVTALPRPFLAAWNTFVLNEHARTPTPGMAVLYERIARTAPSAPVLYLSTGAWNVAPTLSRFLSRNLYPAGPKLLTDWGPTPDRWFRSGQEHKRTSLERLAEEFPNIKWLLVGDDGQHDEAIYSEFAQRHPASVRAIAIRQLSAGEAVLAGGRSKSGGQPTPGVPWIYAPDGAGMSAQLEELGIIRNEVRSADDPEEGEVTTGSDLEHHHHHH”, the “soluble on expression in E. coli” value is listed as “soluble”.
Next, “MKQIESAKNQKVKDWKKLHTKKERTKTNTFLIEGEHLVEEALKSPGIVKEILVKDETRIPSDLETGIQCYMLSEDAFSAVTETETPQQIAAVCHMPEEKLATARKVLLIDAVQDPGNLGTMIRTADAAGLDAVVLGDGTADAFNGKTLRSAQGSHFHIPVVRRNLPSYVDELKAEGVKVYGTALQNGAPYQEIPQSESFALIVGNEGAGVDAALLEKTDLNLYVPLYGQAESLNVAVAAAILVYHLRG”: “soluble”.
Next, “MKQILCTLDYELYGNGTGDVFEHIIKPTEELLAIARRHGIKYTIFFEVVEFWYLKREWERGNKMGYTEDPISAMEQQLREAYLQGHDVQLHLHPQWIGAVHQDGQWRLDLSNWCLGRYQGKGEYSLLSLLKRGKETIEEIIRPVDPHYSCIALRAGGYNAQPSEEIVRAMRQVGLKVDSSIYPGGFETGALSNYDYSSVAPDLGHWYVEDRLEYSAHGATDILELPIVAFPIRRLQKYLSLDRIKALFQNRKSAADTYSAKTANKGGIWGKISYFVELEWQTWDFCLFSKNLHRRFLKRVESQRGRKEFVLVGHPKSFVSGESFNYLIGQLKSSYQFLSMTELYDQRLKIGTKKGVKDTHKPETPAPEGPSPEGPEAGL”: “not soluble”.
